Source: patent US20150344540A1, “NOVEL GLP-1 RECEPTOR AGONISTS WITH CHOLESTEROL EFFLUX ACTIVITY” (NOVO NORDISK A/S, priority 2012, published 2015)
Where no end group is shown, it is not given here. [ ]: non-standard residue; d: D form. Aib = CC(C)(N)C(=O)O

B1: [Aib2,Gly16,Glu21,Lys29,Aib30,Leu31,Glu32,Phe33,Leu34,Glu35,Leu36,Leu37]-Exendin-4-(1-37)-peptide amide (peptide)
peptide: H[Aib]EGTFTSDLSKQMEGEAVREFIEWLKNK[Aib]LEFLELL-NH2
modifications: N-terminus assumed
SMILES: CC[C@H](C)[C@H](NC(=O)[C@H](Cc1ccccc1)NC(=O)[C@H](CCC(=O)O)NC(=O)[C@H](CCCNC(=N)N)NC(=O)[C@@H](NC(=O)[C@H](C)NC(=O)[C@H](CCC(=O)O)NC(=O)CNC(=O)[C@H](CCC(=O)O)NC(=O)[C@H](CCSC)NC(=O)[C@H](CCC(N)=O)NC(=O)[C@H](CCCCN)NC(=O)[C@H](CO)NC(=O)[C@H](CC(C)C)NC(=O)[C@H](CC(=O)O)NC(=O)[C@H](CO)NC(=O)[C@@H](NC(=O)[C@H](Cc1ccccc1)NC(=O)[C@@H](NC(=O)CNC(=O)[C@H](CCC(=O)O)NC(=O)C(C)(C)NC(=O)[C@@H](N)Cc1c[nH]cn1)[C@@H](C)O)[C@@H](C)O)C(C)C)C(=O)N[C@@H](CCC(=O)O)C(=O)N[C@@H](Cc1c[nH]c2ccccc12)C(=O)N[C@@H](CC(C)C)C(=O)N[C@@H](CCCCN)C(=O)N[C@@H](CC(N)=O)C(=O)N[C@@H](CCCCN)C(=O)NC(C)(C)C(=O)N[C@@H](CC(C)C)C(=O)N[C@@H](CCC(=O)O)C(=O)N[C@@H](Cc1ccccc1)C(=O)N[C@@H](CC(C)C)C(=O)N[C@@H](CCC(=O)O)C(=O)N[C@@H](CC(C)C)C(=O)N[C@@H](CC(C)C)C(N)=O
B2: [Aib8,Glu23,Lys24,Val25,Glu30,Glu34,Lys35,Aib36,Lys37]-GLP-1-(7-37)-peptidyl-Glu-Phe-Leu amide (peptide)
peptide: H[Aib]EGTFTSDVSSYLEGEKVKEFIEWLVEK[Aib]KEFL-NH2
modifications: N-terminus assumed
SMILES: CC[C@H](C)[C@H](NC(=O)[C@H](Cc1ccccc1)NC(=O)[C@H](CCC(=O)O)NC(=O)[C@H](CCCCN)NC(=O)[C@@H](NC(=O)[C@H](CCCCN)NC(=O)[C@H](CCC(=O)O)NC(=O)CNC(=O)[C@H](CCC(=O)O)NC(=O)[C@H](CC(C)C)NC(=O)[C@H](Cc1ccc(O)cc1)NC(=O)[C@H](CO)NC(=O)[C@H](CO)NC(=O)[C@@H](NC(=O)[C@H](CC(=O)O)NC(=O)[C@H](CO)NC(=O)[C@@H](NC(=O)[C@H](Cc1ccccc1)NC(=O)[C@@H](NC(=O)CNC(=O)[C@H](CCC(=O)O)NC(=O)C(C)(C)NC(=O)[C@@H](N)Cc1c[nH]cn1)[C@@H](C)O)[C@@H](C)O)C(C)C)C(C)C)C(=O)N[C@@H](CCC(=O)O)C(=O)N[C@@H](Cc1c[nH]c2ccccc12)C(=O)N[C@@H](CC(C)C)C(=O)N[C@H](C(=O)N[C@@H](CCC(=O)O)C(=O)N[C@@H](CCCCN)C(=O)NC(C)(C)C(=O)N[C@@H](CCCCN)C(=O)N[C@@H](CCC(=O)O)C(=O)N[C@@H](Cc1ccccc1)C(=O)N[C@@H](CC(C)C)C(N)=O)C(C)C

Biological target: human GLP-1 receptor (human, UniProt P43220)
Assay: cell-based or functional assay

Row | Binder | CRE luciferase EC50, 0% HSA | CRE luciferase EC50, 1% HSA
1 | B1 | 0.506 nM | 0.26 nM
2 | B2 | 0.716 nM | 0.164 nM
3 | HXEGTFTSDVSSYLEGQAAKEFIAWLVKKXKEFL (Aib at 8, 36; C-terminal amide) [[Aib8,Lys35,Aib36,Lys37]-GLP-1-(7-37)-peptidyl-Glu-Phe-Leu amide] | 0.256 nM | 0.084 nM
4 | HXEGTFTSDVSSYLEGQAAKEFIAWLVKKXGEFL (Aib at 8, 36; C-terminal amide) [[Aib8,Lys35,Aib36]-GLP-1-(7-37)-peptidyl-Glu-Phe-Leu amide] | 0.045 nM | 0.015 nM
